Biological target: T1, CEA antigen (UniProt P06731 35-685, limits assumed)
T1 sequence (looked up): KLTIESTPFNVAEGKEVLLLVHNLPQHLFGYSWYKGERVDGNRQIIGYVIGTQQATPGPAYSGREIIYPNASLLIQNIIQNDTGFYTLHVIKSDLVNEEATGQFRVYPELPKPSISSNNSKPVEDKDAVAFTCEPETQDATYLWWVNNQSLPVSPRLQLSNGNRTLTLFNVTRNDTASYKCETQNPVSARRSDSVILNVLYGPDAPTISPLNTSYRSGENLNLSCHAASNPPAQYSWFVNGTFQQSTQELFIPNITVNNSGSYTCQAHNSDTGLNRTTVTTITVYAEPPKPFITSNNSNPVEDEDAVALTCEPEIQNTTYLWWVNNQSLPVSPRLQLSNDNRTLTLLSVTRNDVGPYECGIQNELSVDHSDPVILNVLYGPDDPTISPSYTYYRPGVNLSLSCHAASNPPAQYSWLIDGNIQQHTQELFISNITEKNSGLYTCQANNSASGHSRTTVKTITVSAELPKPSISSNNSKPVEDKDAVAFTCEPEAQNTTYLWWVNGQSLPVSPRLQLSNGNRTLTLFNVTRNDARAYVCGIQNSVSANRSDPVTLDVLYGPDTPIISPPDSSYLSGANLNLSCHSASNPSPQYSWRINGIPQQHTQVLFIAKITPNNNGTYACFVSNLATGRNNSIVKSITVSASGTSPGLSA
Assay: ELISA, plates coated with CEA antigen; MN14 as the standard
Method: Single colonies were made and from an initial 50 clones, 38 viable clones were obtained. The supernatants of these clones were analyzed for human kappa light chain, human Fc (IgG) and CEA antigen binding. For the huLC and huFc assay, the plates were coated with anti-huFab, for the CEA binding assay, the plates were coated with CEA antigen. All values are in ng/ml. Purified MN14 was used as a standard.

binding result: binds
B1: MN14 antibody (antibody, V domains shown)
VH: EVQLVESGGGVVQPGRSLRLSCSASGFDFTTYWMSWVRQAPGKGLEWIGEIHPDSSTINYAPSLKDRFTISRDNAKNTLFLQMDSLRPEDTGVYFCASLYFGFPWFAYWGQGTPVTVSS
VL: DIQLTQSPSSLSASVGDRVTITCKASQDVGTSVAWYQQKPGKAPKLLIYWTSTRHTGVPSRFSGSGSGTDFTFTISSLQPEDIATYYCQQYSLYRSFGQGTKVEIKR
notes: Purified MN14 used as the standard of the assays; also called Purified MN14

Reference: patent US20040038304A1 (CATALENT PHARMA SOLUTIONS, published 2004)
